Test results reported in IntAct's records for PubMed 21217703.

B1: Telomere length regulator taz1 (Schizosaccharomyces pombe (strain ATCC 38366 / 972)), P79005 (parent)
chain: MISVQSTETIQKVLENEGDQQFDKEVVQNSDSNIETGQISDSLTKAVEERAETESSSNLSNFTTSESESSKPAYCFNSHSQNMAEGSISIPVISHSMNVENEVSTAEGQDSRTGESENDQNAMIVRSIWDIEKASLLVNDCQNIANMAEQKVMMVSAIFSESSKDIVNPESFSERLGKETVKDLYEFNEQLTTKYGLEFRTIFFSYIRKYDAYWCLFEDLEKPLKSIQFFTGLIDLLDNTNKHLTLRSIVLDALLSADEEDSFYGDALVLFEELVIRYFGTDSNPSIDASEFILSCLPYTSLDALNVVCGQVWKSQKICDFLKSTIGNTSNSPLQLRASFPAFVNAVIHFLLEFKNVRRLERKDLSVKGMLYDSDSQQILNRLRERVSGSTAQSADEASGHESDASEDTFSERTLGLNSIDNTEISEVVSLGLVSSALDKITGLLSADNLSETVSQARDFSHTLSKSLKSRAKSLSQKEAANRSKLIAKRGDNLRREASLSSEQDDLSEDFPPVRESDEQESRSGGRSSAMRVSIERSAARSGTRRSQGNPYEGYRTRRKWTDEEENELYEMISQHGCCWSKIIHIQKLENGPLKTFGPTQIKDKARLIKARFMKQNRLQELYSKSLNWKNVTVGQAYCELHKIPYIEATPPLLREELVNYQS
partner: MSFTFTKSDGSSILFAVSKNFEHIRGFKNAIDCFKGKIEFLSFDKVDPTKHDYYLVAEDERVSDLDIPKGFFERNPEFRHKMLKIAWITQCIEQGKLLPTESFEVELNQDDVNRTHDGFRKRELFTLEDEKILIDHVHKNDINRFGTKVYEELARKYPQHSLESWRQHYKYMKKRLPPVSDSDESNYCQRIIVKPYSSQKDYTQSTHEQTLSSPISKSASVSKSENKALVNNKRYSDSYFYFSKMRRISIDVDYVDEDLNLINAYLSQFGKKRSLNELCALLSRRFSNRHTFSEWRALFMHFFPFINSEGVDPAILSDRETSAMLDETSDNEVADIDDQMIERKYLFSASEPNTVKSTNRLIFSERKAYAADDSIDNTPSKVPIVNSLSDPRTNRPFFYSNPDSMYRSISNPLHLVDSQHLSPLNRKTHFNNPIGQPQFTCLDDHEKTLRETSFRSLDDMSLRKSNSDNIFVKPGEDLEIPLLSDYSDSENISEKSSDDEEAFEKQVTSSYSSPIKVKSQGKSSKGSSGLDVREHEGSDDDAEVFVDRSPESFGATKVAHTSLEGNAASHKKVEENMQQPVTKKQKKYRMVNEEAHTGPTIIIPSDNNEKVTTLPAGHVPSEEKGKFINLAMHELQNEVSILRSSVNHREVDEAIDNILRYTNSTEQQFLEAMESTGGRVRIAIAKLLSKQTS
B2: Telomeric repeat-binding factor 2-interacting protein 1 (Homo sapiens), Q9NYB0 (parent)
chain: MAEAMDLGKDPNGPTHSSTLFVRDDGSSMSFYVRPSPAKRRLSTLILHGGGTVCRVQEPGAVLLAQPGEALAEASGDFISTQYILDCVERNERLELEAYRLGPASAADTGSEAKPGALAEGAAEPEPQRHAGRIAFTDADDVAILTYVKENARSPSSVTGNALWKAMEKSSLTQHSWQSLKDRYLKHLRGQEHKYLLGDAPVSPSSQKLKRKAEEDPEAADSGEPQNKRTPDLPEEEYVKEEIQENEEAVKKMLVEATREFEEVVVDESPPDFEIHITMCDDDPPTPEEDSETQPDEEEEEEEEKVSQPEVGAAIKIIRQLMEKFNLDLSTVTQAFLKNSGELEATSAFLASGQRADGYPIWSRQDDIDLQKDDEDTREALVKKFGAQNVARRIEFRKK
B3: DNA-binding protein RAP1 (Saccharomyces cerevisiae), P11938 (parent)
chain: MSSPDDFETAPAEYVDALDPSMVVVDSGSAAVTAPSDSAAEVKANQNEENTGATAAETSEKVDQTEVEKKDDDDTTEVGVTTTTPSIADTAATANIASTSGASVTEPTTDDTAADEKKEQVSGPPLSNMKFYLNRDADAHDSLNDIDQLARLIRANGGEVLDSKPRESKENVFIVSPYNHTNLPTVTPTYIKACCQSNSLLNMENYLVPYDNFREVVDSRLQEESHSNGVDNSNSNSDNKDSIRPKTEIISTNTNGATEDSTSEKVMVDAEQQARLQEQAQLLRQHVSSTASITSGGHNDLVQIEQPQKDTSNNNNSNVNDEDNDLLTQDNNPQTADEGNASFQAQRSMISRGALPSHNKASFTDEEDEFILDVVRKNPTRRTTHTLYDEISHYVPNHTGNSIRHRFRVYLSKRLEYVYEVDKFGKLVRDDDGNLIKTKVLPPSIKRKFSADEDYTLAIAVKKQFYRDLFQIDPDTGRSLITDEDTPTAIARRNMTMDPNHVPGSEPNFAAYRTQSRRGPIAREFFKHFAEEHAAHTENAWRDRFRKFLLAYGIDDYISYYEAEKAQNREPEPMKNLTNRPKRPGVPTPGNYNSAAKRARNYSSQRNVQPTANAASANAAAAAAAAASNSYAIPENELLDEDTMNFISSLKNDLSNISNSLPFEYPHEIAEAIRSDFSNEDIYDNIDPDTISFPPKIATTDLFLPLFFHFGSTRQFMDKLHEVISGDYEPSQAEKLVQDLCDETGIRKNFSTSILTCLSGDLMVFPRYFLNMFKDNVNPPPNVPGIWTHDDDESLKSNDQEQIRKLVKKHGTGRMEMRKRFFEKDLL
B4: Telomeric repeat-binding factor 2 (Homo sapiens), Q15554 (parent)
chain: MAAGAGTAGPASGPGVVRDPAASQPRKRPGREGGEGARRSDTMAGGGGSSDGSGRAAGRRASRSSGRARRGRHEPGLGGPAERGAGEARLEEAVNRWVLKFYFHEALRAFRGSRYGDFRQIRDIMQALLVRPLGKEHTVSRLLRVMQCLSRIEEGENLDCSFDMEAELTPLESAINVLEMIKTEFTLTEAVVESSRKLVKEAAVIICIKNKEFEKASKILKKHMSKDPTTQKLRNDLLNIIREKNLAHPVIQNFSYETFQQKMLRFLESHLDDAEPYLLTMAKKALKSESAASSTGKEDKQPAPGPVEKPPREPARQLRNPPTTIGMMTLKAAFKTLSGAQDSEAAFAKLDQKDLVLPTQALPASPALKNKRPRKDENESSAPADGEGGSELQPKNKRMTISRLVLEEDSQSTEPSAGLNSSQEAASAPPSKPTVLNQPLPGEKNPKVPKGKWNSSNGVEEKETWVEEDELFQVQAAPDEDSTTNITKKQKWTVEESEWVKAGVQKYGEGNWAAISKNYPFVNRTAVMIKDRWRTMKRLGMN
partner: B2 chain
B5: DNA-binding protein rap1 (Schizosaccharomyces pombe (strain ATCC 38366 / 972)), Q96TL7 (parent)
chain: B1 partner
partner: B1 chain

Variants of: B1
Details: with rap1_schpo rap1, Q96TL7
In the case of V387R, the “effect of a mutation on the interaction” value is reported as “decreasing interaction”. I379R was tested, and the “effect of a mutation on the interaction” value was “disrupting interaction”.

Variants of: B1
Details: with rap1_schpo rap1, Q96TL7
Remark: another data set of the same source
L383R was tested, and the “effect of a mutation on the interaction” value was “disrupting interaction”. For L383A, the “effect of a mutation on the interaction” value was “disrupting interaction”. For L380R, the “effect of a mutation on the interaction” value was “decreasing interaction”. With I379R the “effect of a mutation on the interaction” value was “disrupting interaction strength”. With I379A the “effect of a mutation on the interaction” value was “disrupting interaction strength”. For R386E, the “effect of a mutation on the interaction” value was “disrupting interaction”. R384E was tested, and the “effect of a mutation on the interaction” value was “decreasing interaction”.

Variants of: B2
Details: with terf2_human TERF2, Q15554
For MAEAMDLGKDPNGPTHSSTLFVRDDGSSMSFYVRPSPAKRRLSTLILHGGGTVCRVQEPGAVLLAQPGEALAEASGDFISTQYILDCVERNERLELEAYRLGPASAADTGSEAKPGALAEGAAEPEPQRHAGRIAFTDADDVAILTYVKENARSPSSVTGNALWKAMEKSSLTQHSWQSLKDRYLKHLRGQEHKYLLGDAPVSPSSQKLKRKAEEDPEAADSGEPQNKRTPDLPEEEYVKEEIQENEEAVKKMLVEATREFEEVVVDESPPDFEIHITMCDDDPPTPEEDSETQPDEEEEEEEEKVSQPEVGAAIKIRRQLMEKFNLDLSTVTQAFLKNSGELEATSAFLASGQRADGYPIWSRQDDIDLQKDDEDTREALVKKFGAQNVARRIEFRKK [I318R], the “effect of a mutation on the interaction” value was “disrupting interaction”. For MAEAMDLGKDPNGPTHSSTLFVRDDGSSMSFYVRPSPAKRRLSTLILHGGGTVCRVQEPGAVLLAQPGEALAEASGDFISTQYILDCVERNERLELEAYRLGPASAADTGSEAKPGALAEGAAEPEPQRHAGRIAFTDADDVAILTYVKENARSPSSVTGNALWKAMEKSSLTQHSWQSLKDRYLKHLRGQEHKYLLGDAPVSPSSQKLKRKAEEDPEAADSGEPQNKRTPDLPEEEYVKEEIQENEEAVKKMLVEATREFEEVVVDESPPDFEIHITMCDDDPPTPEEDSETQPDEEEEEEEEKVSQPEVGAAIKIIRQLMEKFNLDLSTVTQARLKNSGELEATSAFLASGQRADGYPIWSRQDDIDLQKDDEDTREALVKKFGAQNVARRIEFRKK [F336R], the “effect of a mutation on the interaction” value was “disrupting interaction”.

Variants of: B3
Details: with sir3_yeast SIR3, P06701
Chain of sir3_yeast SIR3, P06701 (P06701 whole entry): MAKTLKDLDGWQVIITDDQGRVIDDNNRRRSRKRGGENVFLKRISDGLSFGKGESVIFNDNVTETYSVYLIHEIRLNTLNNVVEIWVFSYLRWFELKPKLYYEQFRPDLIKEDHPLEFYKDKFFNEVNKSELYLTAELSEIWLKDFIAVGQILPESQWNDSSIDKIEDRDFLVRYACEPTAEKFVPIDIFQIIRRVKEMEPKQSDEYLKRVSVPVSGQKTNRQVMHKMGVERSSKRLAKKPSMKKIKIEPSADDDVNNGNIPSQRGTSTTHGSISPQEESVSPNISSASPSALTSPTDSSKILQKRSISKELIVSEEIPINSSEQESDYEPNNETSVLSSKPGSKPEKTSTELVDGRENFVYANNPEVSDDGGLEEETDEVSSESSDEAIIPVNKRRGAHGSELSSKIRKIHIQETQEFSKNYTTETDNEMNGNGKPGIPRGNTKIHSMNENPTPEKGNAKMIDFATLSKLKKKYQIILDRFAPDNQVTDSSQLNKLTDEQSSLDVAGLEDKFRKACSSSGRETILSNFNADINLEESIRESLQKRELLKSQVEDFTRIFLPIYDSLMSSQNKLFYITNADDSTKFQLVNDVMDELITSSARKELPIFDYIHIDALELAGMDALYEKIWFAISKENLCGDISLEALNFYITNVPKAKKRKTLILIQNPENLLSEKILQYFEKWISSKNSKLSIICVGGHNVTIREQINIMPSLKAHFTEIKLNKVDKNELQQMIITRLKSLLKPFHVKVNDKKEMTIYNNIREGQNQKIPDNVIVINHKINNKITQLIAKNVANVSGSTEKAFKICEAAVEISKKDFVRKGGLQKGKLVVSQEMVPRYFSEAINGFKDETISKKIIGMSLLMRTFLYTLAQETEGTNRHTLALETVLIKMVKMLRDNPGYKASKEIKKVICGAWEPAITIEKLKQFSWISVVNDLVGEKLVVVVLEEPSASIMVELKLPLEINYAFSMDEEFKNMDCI
With V737R the “effect of a mutation on the interaction” value was “disrupting interaction”. For A733R, the “effect of a mutation on the interaction” value was “disrupting interaction”. G760R was tested, and the “effect of a mutation on the interaction” value was “disrupting interaction”. With P730R the “effect of a mutation on the interaction” value was “decreasing interaction”. L755R was tested, and the “effect of a mutation on the interaction” value was “disrupting interaction”.

Variants of: B4
Details: with te2ip_human TERF2IP
In the case of L330E, the “effect of a mutation on the interaction” value is reported as “disrupting interaction strength”. L330R was tested, and the “effect of a mutation on the interaction” value was “disrupting interaction strength”.

Variants of: B5
Details: with taz1_schpo taz1, P79005
I655R was tested, and the “effect of a mutation on the interaction” value was “disrupting interaction”. With V651R the “effect of a mutation on the interaction” value was “decreasing interaction”.
